Drawing on PMC7961048 (2021), this text covers Kd for four molecules.

The chains are these.
B1: full-length human 14-3-3ζ fused to the C terminus of MBP (natural protein)
chain: MDKNELVQKAKLAEQAERYDDMAACMKSVTEQGAELSNEERNLLSVAYKNVVGARRSSWRVVSSIEQKTEGAEKKQQMAREYREKIETELRDICNDVLSLLEKFLIPNASQAESKVFYLKMKGDYYRYLAEVAAGDDKKGIVDQSQQAYQEAFEISKKEMQPTHPIRLGLALNFSVFYYEILNSPEKACSLAKTAFDEAIAELDTLSEESYKDSTLIMQLLRDNLTLWTSDTQGDEAEAGEGGEN
B2: full-length human 14-3-3γ fused to the C terminus of MBP (natural protein)
chain: MVDREQLVQKARLAEQAERYDDMAAAMKNVTELNEPLSNEERNLLSVAYKNVVGARRSSWRVISSIEQKTSADGNEKKIEMVRAYREKIEKELEAVCQDVLSLLDNYLIKNCSETQYESKVFYLKMKGDYYRYLAEVATGEKRATVVESSEKAYSEAHEISKEHMQPTHPIRLGLALNYSVFYYEIQNAPEQACHLAKTAFDDAIAELDTLNEDSYKDSTLIMQLLRDNLTLWTSDQQDDDGGEGNN

Like-named read-outs stand apart in the source and are kept apart here. Non-standard residues stand in square brackets, D forms with d. No end group written: not given here. *: point of attachment. FITC = O=C1OC2(c3ccc(O)cc3Oc3cc(O)ccc32)c2ccc(NC(=S)*)cc21; Biotin = O=C1N[C@H]2[C@H](CS[C@H]2CCCCC(=O)*)N1; pT = C[C@@H](OP(=O)(O)O)[C@H](N)C(=O)O; ttds = NCCCOCCOCCOCCCNC(=O)CCC(=O)*; pS = N[C@@H](COP(=O)(O)O)C(=O)O

Assay [1] concerns the target T1, HPV33 E6 phospho-PBM peptide p33E6 (human papillomavirus type 33). The assay is described as follows: FP.
Assay [2] addresses T2, HPV35 E6 phospho-PBM peptide p35E6 (human papillomavirus type 35). The assay is described as follows: FP.
Assay [3] concerns the target T1, HPV33 E6 phospho-PBM peptide p33E6. The assay is described as follows: FP. The source holds these as a separate data set.
The target in assay [4] is T2, HPV35 E6 phospho-PBM peptide p35E6. The assay is described as follows: FP. The source holds these as a separate data set.
The target of assay [5] is T1, HPV33 E6 phospho-PBM peptide p33E6. Description: FP; +FSC.
Assay [6] concerns the target T2, HPV35 E6 phospho-PBM peptide p35E6. The assay is described as follows: FP; +FSC.
For assay [7], the target named is T1, HPV33 E6 phospho-PBM peptide p33E6. The assay is described as follows: FP; with FSC.
Assay [8] has as its target T2, HPV35 E6 phospho-PBM peptide p35E6. Description: FP; with FSC.
Assay [9] has as its target T3, unfused 14-3-3ε devoid of the flexible C-terminal tail (human).
T3 chain: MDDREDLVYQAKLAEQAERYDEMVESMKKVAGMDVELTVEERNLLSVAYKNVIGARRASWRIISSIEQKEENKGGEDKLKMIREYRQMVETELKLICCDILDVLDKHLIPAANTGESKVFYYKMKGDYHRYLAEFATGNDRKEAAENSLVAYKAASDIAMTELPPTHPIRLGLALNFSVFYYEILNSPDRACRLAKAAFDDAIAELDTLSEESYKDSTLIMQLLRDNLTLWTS
The assay is described as follows: FP.

The target in assay [10] is T4, full-length human 14-3-3σ fused to the C terminus of MBP (human, UniProt P31947 1-248).
T4 chain: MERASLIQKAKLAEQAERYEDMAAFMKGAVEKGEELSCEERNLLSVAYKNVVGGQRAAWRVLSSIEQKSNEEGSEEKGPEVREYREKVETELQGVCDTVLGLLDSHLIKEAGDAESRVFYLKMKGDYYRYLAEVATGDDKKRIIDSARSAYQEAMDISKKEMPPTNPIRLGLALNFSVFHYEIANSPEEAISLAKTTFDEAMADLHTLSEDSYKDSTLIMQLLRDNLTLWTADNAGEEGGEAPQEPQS
Description: FP.

Assay [11] has as its target T5, full-length human 14-3-3η fused to the C terminus of MBP (human, UniProt Q04917 1-246).
T5 chain: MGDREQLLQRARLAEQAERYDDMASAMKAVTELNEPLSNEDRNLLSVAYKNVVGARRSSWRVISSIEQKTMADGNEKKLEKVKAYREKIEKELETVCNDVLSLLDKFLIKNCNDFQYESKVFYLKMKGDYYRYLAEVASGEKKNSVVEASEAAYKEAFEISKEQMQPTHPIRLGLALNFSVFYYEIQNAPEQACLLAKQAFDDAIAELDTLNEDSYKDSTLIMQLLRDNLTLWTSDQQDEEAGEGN
Description: FP.

The target in assay [12] is B2. Description: FP.
Assay [13] concerns the target T6, full-length human 14-3-3β fused to the C terminus of MBP (human, UniProt P31946 1-246).
T6 chain: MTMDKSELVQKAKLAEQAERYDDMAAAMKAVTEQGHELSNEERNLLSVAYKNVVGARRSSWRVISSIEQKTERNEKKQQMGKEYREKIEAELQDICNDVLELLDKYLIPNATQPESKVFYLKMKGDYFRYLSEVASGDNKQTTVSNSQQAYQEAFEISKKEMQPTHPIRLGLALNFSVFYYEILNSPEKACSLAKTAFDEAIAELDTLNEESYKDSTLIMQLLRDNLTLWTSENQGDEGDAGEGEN
The assay is described as follows: FP.

In assay [14] the target is T7, full-length human 14-3-3τ fused to the C terminus of MBP (human, UniProt P27348 1-245).
T7 chain: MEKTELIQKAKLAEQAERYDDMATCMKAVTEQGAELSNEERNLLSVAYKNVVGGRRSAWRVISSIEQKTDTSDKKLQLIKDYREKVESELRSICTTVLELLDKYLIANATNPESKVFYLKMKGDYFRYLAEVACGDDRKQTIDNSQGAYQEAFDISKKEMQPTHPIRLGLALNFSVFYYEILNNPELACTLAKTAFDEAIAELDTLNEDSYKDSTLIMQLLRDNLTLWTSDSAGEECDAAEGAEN
Description: FP.

For assay [15], the target named is T8, full-length human 14-3-3ε fused to the C terminus of MBP (human, UniProt P62258 1-255).
T8 chain: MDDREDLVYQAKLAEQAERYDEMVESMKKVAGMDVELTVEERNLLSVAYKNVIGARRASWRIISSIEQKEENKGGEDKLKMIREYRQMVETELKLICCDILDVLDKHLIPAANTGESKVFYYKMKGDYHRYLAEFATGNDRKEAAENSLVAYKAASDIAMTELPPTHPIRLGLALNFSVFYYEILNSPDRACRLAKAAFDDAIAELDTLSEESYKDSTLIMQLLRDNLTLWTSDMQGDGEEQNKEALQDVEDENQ
The assay is described as follows: FP.

Assay [16] deals with T9, unfused 14-3-3τ devoid of the flexible C-terminal tail (human).
T9 chain: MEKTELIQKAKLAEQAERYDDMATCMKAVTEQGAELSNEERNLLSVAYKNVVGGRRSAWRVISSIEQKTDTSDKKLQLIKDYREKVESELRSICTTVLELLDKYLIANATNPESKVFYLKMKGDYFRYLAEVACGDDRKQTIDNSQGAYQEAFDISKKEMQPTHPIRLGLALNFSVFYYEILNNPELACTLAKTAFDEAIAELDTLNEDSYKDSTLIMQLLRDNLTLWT
The assay is described as follows: FP.

The target in assay [17] is B1. The assay is described as follows: FP.
For assay [18], the target named is T10, unfused 14-3-3β devoid of the flexible C-terminal tail (human).
T10 chain: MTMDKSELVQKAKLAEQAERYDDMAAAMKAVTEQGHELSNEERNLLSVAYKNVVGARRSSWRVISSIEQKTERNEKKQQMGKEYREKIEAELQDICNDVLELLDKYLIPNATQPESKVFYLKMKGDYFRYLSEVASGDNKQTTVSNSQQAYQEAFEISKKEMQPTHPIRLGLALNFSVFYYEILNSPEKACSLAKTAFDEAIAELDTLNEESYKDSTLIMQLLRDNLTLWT
The assay is described as follows: FP.

The target in assay [19] is B2. The assay is described as follows: FP; with FSC.
In assay [20] the target is T4, full-length human 14-3-3σ fused to the …. Description: FP.
Assay [21] concerns the target T5, full-length human 14-3-3η fused to the …. Description: FP.
Assay [22] concerns the target B2. The assay is described as follows: FP.
Assay [23] has as its target T6, full-length human 14-3-3β fused to the …. The assay is described as follows: FP.
Assay [24] concerns the target T7, full-length human 14-3-3τ fused to the …. Description: FP.
The target in assay [25] is T8, full-length human 14-3-3ε fused to the …. The assay is described as follows: FP.
In assay [26] the target is B1. The assay is described as follows: FP.

Consider B1, for which the Kd (commonly the concentration at which binding is half-saturated) in assay [1] amounted to 2700 nM; in [2] it was 191000 nM; in [3], 2720 nM; in assay [4] it was 191000 nM; in assay [5] it was 3900 nM; in [6], 294000 nM. Besides, the Kd was 3940 nM in assay [7] and 294000 nM in assay [8].

For the molecule B2, the Kd in assay [1] came out at 900 nM; in assay [2] it was 125000 nM; in [4] it was 125000 nM; in [5], 2200 nM; in assay [6] it was 228000 nM; in assay [7], 2150 nM.

B3: fluorescently labeled HSPB6 phosphopeptide (fpB6) (peptide)
peptide: {FITC}-WLRRA[pS]APLPGLK
Take B3: the Kd came to 5270 nM in [9]; 9620 nM in assay [10]; 2470 nM in assay [11]; 1950 nM in [12]; 5220 nM in [13]; 9000 nM in assay [14]. The dissociation constant (Kd) is 7170 nM in assay [15]; 6530 nM in [16]; 4760 nM in assay [17]; 3750 nM in assay [18]; 4400 nM in assay [19].

B4: RSK1 phospho-PBM peptide RSK1_-1P (peptide)
peptide: {Biotin-ttds}-RRVRKLPST[pT]L
Consider B4, for which the Kd in assay [20] amounted to 1700 nM; in assay [21] it was 500 nM; in assay [22], 300 nM; in [23], 700 nM; in assay [24], 800 nM; in assay [25] it was 1600 nM. For the same molecule, the Kd in assay [26] came out at 1000 nM; in assay [10], 1710 nM; in assay [11] it was 460 nM; in assay [12] it was 310 nM; in assay [13], 740 nM; in assay [14], 780 nM. Moreover, the Kd in assay [15] came to 1580 nM; in [17], 960 nM.
